From the DeepSol protein solubility set come the findings set out here.

This data set is described as follows: soluble on expression in E. coli; label from the status in PepcDB or PDB records.
For the sequence “MGSDKIHHHHHHMIQSVRIKNFKNFKNTKIDGFTKLNIITGQNNAGKSNLLEALYYLVGKSMHPCTNVLEIYDNIRKEPLTSESKSLMFYGLDTKEEIQIVTTLDNNQTLDLQIKFIASENQKVIESQIIPTAEQTQMSSQLNFTLKKNNEEIYNDHLNIAKVPNFPPIPNQSGYNRQFKNFDSNQLQKLLPFESAVIIPSDVVYRQAHMIQAVSKICSNNQLEEELNKHLNQFDNNIQAISFNTNNQLKLKVKDIKEKVPLSVFGDGLKKYLHIVSAFMADNAKTIYIDEVENGLHFSRMRLLLKNTIDFINNNKDGNLQVFMTTHSQEFIEILDQVIREKDFAHQTKLFCLKQDDQYVIPRTYYGENLEYYFENEENLFG”, the “soluble on expression in E. coli” value is on record as “not soluble”.

Turning to “MSLGSVFRHIEGGMLFPQGSVTCIGAFDGLHLGHRALVRHALQRATALHLPTVALSFEPLPREYFASTTPPPRLTLTRAKIQGLHRFGADSVGLLRFDSRLASMSPQTFVERVLLGRLGVREVLIGPQFRFGHQRSGDIALLQRLGLEHGFTATEIPPLHLNNERISATKIRALLAAGDFAHAAELLGRPYMIGGRVVRGQQLGSTLGYPTANLRFPHPIALSGIYATWVHGIFEQPWPSVSSFGTRPTVAGVEPLLEVHLFDFHSDLYGRRIDVEFIAKLRDEETFPDLHTMTTQIHRDAQQARHILSEHRLRAEGHHHHHH”, the “soluble on expression in E. coli” value is “not soluble”.

With “GPGSMFFLTRFKLGMADVTAAIGSGKCGEVLRKLNEKKAVREREENIDYRRALCFLANSQDVFHARQALLEELRHFPNNTAARTLLLEVNETVRPLLMPPKELLKSEPLFGLLCDALLDHTMLTWTRLYSLYRLSKEVCSKEGEGGALMECGVSGGGSVVLLAVVAAHYSKKPRKIYALDTFSGMPEPTTHDNLEEDGNLKPAESTSWGSGTCSATVENVRQLAKNFDVEEGLVVIPGLFHETMPKTLREISDEGISMLHVDADWYESTRCALELAWPMVKQGGMVQVDDYHYWLGCRKAVDEFAQREESEHRPLPILQNVDGNAVYFTKP”, the “soluble on expression in E. coli” value was “not soluble”.

Turning to “MTTQTIKFHMKPETFKQNAAISLQDKPLRKSLRTAMDMLMTKRKAVLTDEEELQSLRDLCEHVRQRSLSKLPALLEQLEENLTKLGVKVHWAETPTEACQIIHDIITAKNGKLMVKGKSMVSEEIELNHYLEAKGIKAVESDLGEFIVQMAGEKPTHIVMPAIHKTKEQVSELFHQNLGTPLTDDVDQLTGFARKALRDIYSTADVGLSGVNFAVAETGTLCLVENEGNGRLSTTVPPVHIAITGIEKVVAKLSDIPPLYSLLPRSAIGQNITTYFNMITGPRRSEELDGPQEMHLVLLDNGRSQAYAEDQMRRTLQCIRCGACMNHCPVYTRIGGAAYGTTYPGPIGEIISPHLLGLDATRDLPTACTMCGACVEVCPVRIPITEQMQRLRVEAQRSPTETVPHPIRGQGASHTFGEQMAWRTFNGIFSGSKTYRAFGWAATKFRNLTPRKQLGWTQNRVPMKPAKKTLHELMAEKMRQKEQA”, the “soluble on expression in E. coli” value was “not soluble”.

Take “MAHHHHHHMSEAAALESIMRPPSPELQRRLFVPTPSLHASAETARQHRAERQSALLAERATAYTCHPAILPVSREMAASERRRNGWMQLPVGDVLMERHKRVEGHLEEKRQQEVARFSFRPTISARARTMQSSRPVVERLYSGTADAGTDTATFTDVTNLRSSSGEKTKTASMATYQRLYQDAVTRRAHDQMQEKLARVRSKNEFCPCTDSVSGLIASKRGDTTRERLLRPKAALDVARDVYPQETFAPRINTSTRFERVPLSARAAIWQRRRSERLHHAVVARCEVEMRECTFHPRTRRGLTALSQAHARATADSYTGPLASIMSSAEELLRRVDLEASAPLPESGRCAPLLDDDGKLPGTVPVDILAVLHEAEHVSEALRLLPDTNLDLDLSQHTSLG”: the “soluble on expression in E. coli” value was “not soluble”.

As to “MEENNKILIYTDSEGLTKIDVILEDETLWLTQAQMCELYQTSKSNVSEHIKHIFEEGELQEDSVVRKFRTTASDGKSYMTAYYNLDMIIALGYRIRSIIATRFRQWATQRLKEYMIKGFALDDERLKQLGGGGYWKELLERIRDIRATEKVLYRQVLEIYATSIDYDPRASVSQEFFKKVQNKIHYAIHGHTAAELIVERADAEKDFMGLLTFKGNQPTLSEARTAKNYLDEKELRAMGQLVSGYLDFAERQAEREQPMTMNDWANYLDRILTMSGEQLLLDSGKVSHTEAMEHATNEYRKYKQRTISDVEQDYLDSIKRIGNIGKKGDKNEN”, the “soluble on expression in E. coli” value is on record as “not soluble”.

For “MTSGSLQFTVLRAVNPATDAQRESMLREPGFGKYHTDHMVSIDYAEGRGWHNARVIPYGPIELDPSAIVLHYAQEVFEGLKAYRWADGSIVSFRADANAARLRSSARRLAIPELPDAVFIESLRQLIAVDKAWVPGAGGEEALYLRPFIFATEPGLGVRPATQYRYLLIASPAGAYFKGGIAPVSVWVSTEYVRACPGGTGAAKFGGNYAASLLAQAEAAENGCDQVVWLDAVERRYIEEMGGMNIFFVLGSGGSARLVTPELSGSLLPGITRDSLLQLAIDAGFAVEERRIDIDEWQKKAAAGEITEVFACGTAAVITPVARVRHGASEFRIADGQPGEVTMALRDTLTGIQRGTFADTHGWMARLG”, the “soluble on expression in E. coli” value was “soluble”.

Turning to “MGSDKIHHHHHHMEGKVKKAFPGGNTSQGSYSFFDYIIPENVKRVFCLKGGPGVGKSSLMKKIYKEFLHRGYDIDLYHCPSDPSSLDGLVIKKLGVVLMDATAPHTMDPKLPGALDEIINLGDYWNTEELEKNKQEISVYDKDISNSFKRAFKFLKSAEPIFRDIEEKYSDCMDYGKVNLVTEEFIKRLFDGVKSTGNLKREKHLFGSAITPVGCLDYTENILKDVKKVYYLDGEIGTGKTTLLNKVYKKAIEKGLNVEVYHYPLIPEKIETVLLTDLDIGITISTTFKEEDTIDLNQFLNREKLLKYEEDIKFDEKVLDDLICWAVLNLKRAKSKHDIIESYYSPNMRFDEVGKLRDKLIKRILKYEENL”, the “soluble on expression in E. coli” value was “not soluble”.

On to “MENMIVIMAGGRSSRMGAEKPILKVNGKPMILRVYEESTKVGETLVAISKNTPKTRELCIKEGIPLIETPGEGYVEDVRYLLKELGSFVSVSADLPFVKACDIAEVKKAFDGKTSLTGVLPLSKVPTDLRPVVYKGYVIVGLNGVGFEGEKFYELSNPLLALNVNTPEELKLANRIAKLIG”, for which the “soluble on expression in E. coli” value was “soluble”.

In the case of “MGKKPVVIGVAGGSGSGKTSVARAIYDHFGDHSILVLEQDFYYKDQSHLPFEERLKTNYDHPLAFDNDLLIEHIHKLLRYEPIDKPVYDYTLHTRSSDVIRVEPKDVIIVEGILVLEDERLRNLMDIKVYVDTDPDIRIIRRLIRDMKERGRTFDSVIEQYLSVVRPMHNQFVEPTKRYADVIIPEGGQNVVAIDLMVAKIRTVLEQKAVL”, the “soluble on expression in E. coli” value was “not soluble”.

With “SQELRGEIKLFCSVTASYSHLPELLSSFRLKHPYIEFKLLTGDPAQAIDKILHDEADIAISAMPEQLPSRIEFATISEIPLSVIAPLGISSFMDELQKEQPDWNEIPFIVPESGTARDRANTWFKQMKIKPNIYAQIAGHEAIV”, the “soluble on expression in E. coli” value is reported as “not soluble”.

Regarding “GPEQAMYSFMTYYIAMKTIDAVIQGLDETKAVIIVSEQYDEISDAILHRLGRGTTKLKGKGGYTDEEKDVIYAVVTRLEVTKLKSIVFEVDQNAFITIMNTHETRGGKFKNAIH”, the “soluble on expression in E. coli” value is “not soluble”.

On to “EVDPAKCVLQGEDLHRAREKQTASFTLLCKDAAGEIMGRGGDNVQVAVVPKDKKDSPVRTMVQDNKDGTYYISYTPKEPGVYTVWVCIKEQHVQGSPFTVTVRRKH”, for which the “soluble on expression in E. coli” value is recorded as “soluble”.

Turning to “MAMKQWIAALLLMLIPGVQAAKPQKVTLMVDDVPVAQVLQALAEQEKLNLVVSPDVSGTVSLHLTDVPWKQALQTVVKSAGLITRQEGNILSVHSIAWQNDNIARQEAEQARAQANLPLENRSITLQYADAGELAKAGEKLLSAKGSMTVDKRTNRLLLRDNKTALSALEQWVAQMDLPVGQVELSAHIVTINEKSLRELGVKWTLADAQHAGGVGQVTTLGSDLSVATATTHVGFNIGRINGRLLDLELSALEQKQQLDIIASPRLLASHLQPASIKQESEIPYQVSSGESGATSVEFKEAVLGMEVTPTVLQKGRIRLKLHISQNVPGQVLQQADGEVLAIDKQEIETQVEVKSGETLALGGIFTRKNKSGQDSVPLLGDIPWFGQLFRHDGKEDERRELVVFITPRLVSSELEHHHHHH”, the “soluble on expression in E. coli” value is listed as “soluble”.

As for “MGSDKIHHHHHHLDDYDDDIYDMQAGMPFNAALATVVTPSEIPGEAMIESDNDGVAYVVNPDKLTRFETNNPGQRIFYTYINADNPTGDASKKGPFISIDYLQKILTKRMDTLKENEEDIYGHDGINLITPIMGKTHLTLMFQILGFNSNIKHRISLVATEGTVPDANGYMAVELRHNAEGDRQEYPSSGYVSFPLLDVPGYKEGKLQGFKIKMNTINNGEETVTVSYNKSKSTNFPFIQKGISNTKIK”, the “soluble on expression in E. coli” value was “not soluble”.

As to “MLNQPRLDEIMRLLAQQQRVKASDLAQLLFVSEETIRRDFKHLEEEGRLRRIHGGAILPRSSEELPLQERSRLKPRAKAGIATCAAQLVTEGMAIFLDTGTSTLALAQQLTRFSQLKIITNSLDIAQLISHQSDNQVLVAPGDVRRTDNALIGPHTLEFARQFHYDIAFMGIGGIDLDLGLMDYQEPEAMLRRTLVRHCARSVVLADDGKFGHRTFINTLPFAAITTLVTNRPLSDEFATRLEKDHVDTLYP”, the “soluble on expression in E. coli” value was “not soluble”.

For “MPEVSVEKPLSVIPPEFCANANCPFSPKEISVLRIKVRGGVSKEEILQVNSASRPALPRQHSASTVSPLQSSSDELNNDSGIDNRTVGSPSTSEFSPRSTDLFVSPKSIIDEEPPHHPPPPPPVEEKLDQVLIPLKLSRGQDYAPIYRSLEQDTYYDQSPSESEKDEDLGLTNTKRYTENFRSVEKNQYMPVMSARVEATFKQPPPREGVKPFVSRAAQDITHNGESKVENIDLTIELNREQKATVTATKYPRTDFIMEDYHRPQTQILAPAPKKPNSTTRIYHAVDIPFDESPASYYPKQNNGYQRQRRYSASSASKQDGMFTLNVIMGSQPVHKGMGFSTVKRDERVIVESVIVGSPADKAGLLVGDTILSINGEEMSDKYQSGVTRILHEAARVGEADVLILRAPVPAPMLSKQMSTSSSNSSNYDKARSVFTENKSFDSYAEFKRKHTRTSRDSNSSNATRSSRDFNSLPRGTTAQSSLDRKRDTSLSSYRTAKDNFNSSSNRSSGRSEYGDYRVSNYQEKNAPGRLTDFVPEVDRRLSRREQSEEIYSRSQRDEEPRTIRNYHLSNENIARTNLNYDGRRDSEEESTTTTLKRTTLPRSGTAQWKNEYSDGEEVTEKLPVTSRDSSPLRSALKKSSHNYYHQSSDPVAPPPRRYYSTESLQLPKTSSYQRYSEEEDEEIEETYSSMRRHRQEIPRHVDEFHTVGSYGVMPQRSRSQQPARLPRYDSVPDDVDEVSGVSHRFYDRSGNHVRAPRERIHDIQIQRDYGDRAPSRDLDFVRNTYKWEEQLEDTKVTTTTKIYEKESRDWRDVINQQRQAAPGNSADRRGIAATSSSLSNLPSYINRRMEKEREREIEYRRDREYSMPPADPPVITEKYERDEYSRVEERTYPVPVARNKMRREETQMQSSLQQMHSQSSQKDDSVVAVSGKHRCAHCNEELGRGAAMIVESLNLFYHLACFKCYVCKTSLGSGATGADVRVRDGRLHCQTCYSNDRVQLSKV”, the “soluble on expression in E. coli” value was “not soluble”.

For “TEQERLELEAAAFRRLVAHLDSRKDVQNIDLMNLSGFCRNCLSKWYKAAADEKHIDITLDDAREVVYGMPYSEWKANYQKEASAEQQAAFVKESKH”, the “soluble on expression in E. coli” value was “not soluble”.
